# B1: Bc-12: patient derived human scFv antibody against activated αvβ3 with RGD motif in CDR-H3; cDNA ATCC PTA-6303 (protein)
# scFv: MAQVQLVQSGAEVKKPGASVKVSCKASGYTFSNYGITWVRQAPGQGLEWMGWINNGNTHYAQKFQGRVTMTTDTSTSTAYMELRSLRSDDTAVYYCARDPRGDDEPYWGQGTLVTVSSGGGGSGGGGSGGGGSEIVLTQSPLSLPVTLGQPASISCRSSQNLVYSDGNTYLSWFQQRPGQSPRRLIYKVSNRDSGVPDRFSGSGSGTDFTLKISRVEAEDIGVYYCMQGTHWPPRTFGQGTKVEIKRGLGGLVDYKDDDDK
# Test system: activated integrin αvβ3
# Assay: Flow cytometry, scFv binding to MDA-MB 435 variants and patient metastatic breast cancer cells
# Set-up: species or system human
# Method: FIGS. 1A, 1B, 1C. Patient derived scFvs Bc-12 and Bc-15 recognize tumor cell integrin αvβ3 in a cation and activation dependent manner. Flow cytometric analyses in TBS with or without 1 mM Ca^2+, 1 mM Mg^2+, or 0.2 mM Mn^2+ as indicated. Binding of soluble scFv detected after incubation with anti-Flag M2 murine mAb followed by FITC-anti mouse F(ab′)2. (A) scFv binding to human melanoma cells (M21: αvβ3 plus other αv integrins) (M21-LIIb: αIIbβ3, no αv integrins) or lung adenocarcinoma cells (UCLA-P3: αv integrins, no β3 integrin). (B) scFv binding to M21 melanoma cells. (C) scFv binding to variants of MDA-MB 435 human breast cancer cells that lack (β^3−) or express αvβ3 either in a non-activated (β3WT, ParentCo) or activated form (β3D723R, Bone, Lung, and BMS metastatic cancer cells isolated from breast cancer patient blood).
# FIGS. 2A, 2B, 2C, 2D. Translation of scFv DNA sequence analyses. (A) Consensus amino acid sequence (SEQ ID NO: 9) of Bc-12 (SEQ ID NO: 7) and Bc-15 (SEQ ID NO: 8) (specific for activated αvβ3) compared to Bc-20 (specific for αv) (SEQ ID NO: 10). (B) scFv binding to BMS human breast cancer cells by flow cytometry, indicating loss of Bc-12 and Bc-15 binding when CDR-H3 RGD is mutated to RGE (Mut-12 and Mut-15). […] (C) cDNA sequences for scFv Bc-12 (SEQ ID NO: 1) and scFv Bc-15 (SEQ ID NO: 3). The cDNA encoding scFv Bc-12 has an ATCC accession number PTA-6303, date of deposit: Nov. 12, 2004. The cDNA encoding scFv Bc-15 has an ATCC accession number PTA-6304, date of deposit: Nov. 12, 2004. (D) cDNA sequences for scFv Mut-12 (SEQ ID NO: 5) and scFv Mut-15 (SEQ ID NO: 6). scFv Mut-12 is the RGE containing mutant version of scFv Bc-12. scFv Mut-15 is the RGE containing mutant version of scFv Bc-15.
# Flow cytometry. scFv binding to human tumor cells was analyzed by flow cytometry, initially with cloned scFv phage and then with purified scFv protein. Per sample, 2×10^5 tumor cells were blocked with goat serum and incubated either with scFv phage (2-5×10^10) (1 h at RT) followed by mouse anti-M13 mAb (Serotec) (30 min on ice) and goat FITC-anti mouse (Pierce) (30 min on ice), or with purified scFv (1.25 to 40 μg/ml, routinely 10 to 15 μg/ml) (45 min on ice), followed by mouse anti-FLAG mAb M2 (Sigma) (30 min on ice) and goat FITC-anti mouse. Binding/washing buffer was TBS with or without divalent cations (1 mM Ca^2+, 1 mM Mg^2+, 0.2 mM Mn^2+). Alternatively, tumor cells were washed in 10 ml of plasma (prepared freshly from human blood anticoagulated with 50 nM D-Phe-D-Pro-D-arginyl chloromethyl ketone, PPACK, Felding-Habermann et al., J. Biol. Chem. 271: 5892-5900, 1996), resuspended in plasma and then incubated sequentially, without washing, with purified scFv (45 min on ice), followed by anti-FLAG M2 (30 min on ice) and FITC-anti mouse (30 min on ice). All samples were counter stained with propidium iodide (PI) and analyzed on a Becton-Dickinson FACScan, with live gate set to exclude PI positive cells.
# To test this further, the effects of cation combinations on Bc-12 and Bc-15 binding were examined. […] Smith, Methods Cell Biol. 69: 247-259, 2002; Hughes et al., J. Biol. Chem. 271: 6571-6574, 1996. To confirm that scFv Bc-12 and Bc-15 selectively recognize αvβ3 in its activated form, binding of these antibodies to in vitro generated and in vivo selected variants of the MDA-MB 435 breast cancer cell model was tested. […] In contrast, Bc-12 and Bc-15 were able to bind an MDA-MB 435 variant expressing constitutively activated mutant αvβ3D723R, without exogenous stimulation with Mn^2+. […] Importantly, scFvs Bc-12 and Bc-15 recognized in vivo selected MDA-MB 435 variants from bone and lung metastases, as well as metastatic cells isolated from breast cancer patient blood samples (FIG. 1C). These cells express αvβ3 in a constitutively activated form. Felding-Habermann et al., Proc. Natl. Acad. Sci. U.S.A 98: 1853-1858, 2001; Rolli et al., Proc. Natl. Acad. Sci. U.S.A 100: 9482-9487, 2003.
molecule,measurement,setting,value
B1,binding to MDA-MB 435 variant expressing αvβ3D723R with Mn2+,Mn^2+ added,further enhanced
same,binding to MDA-MB 435 variant expressing αvβ3D723R,"constitutively activated mutant, without Mn^2+",able to bind
same,binding to β3-negative MDA-MB 435 cells,β3− variant,failed to bind

# From patent US7271245B2, “Methods and compositions for inhibition of metastasis” (The Scripps Research Institute, priority 2004, dated 2007)
